Ratio to parent data for 34 variants are collected here from publication PMC11480844 (2024).

Sequences and labels used below:
B1: H2-Kb / Ed23 (parent complex)
chain 1: QQKVQQSPESLTVSEGAMASLNCTFSDRSSDNFRWYRQHSGKGLEVLVSIFSDGEKEEGSFTAHLNRASLHVFLHIREPQPSDSALYLCAVRGFWTNKVVFGTGTRLQVLP
chain 2: AQTIHQWPVAEIKAVGSPLSLGCTIKGKSSPNLYWYWQATGGTLQQLFYSITVGQVESVVQLNLSASRPKDDQFILSTEKLLLSHSGFYLCAWSPRQSSYEQYFGPGTRLTVL
chain 3: not shown
chain 4: IQKTPQIQVYSRHPPENGKPNILNCYVTQFHPPHIEIQMLKNGKKIPKVEMSDMSFSKDWSFYILAHTEFTPTETDTYACRVKHDSMAEPKTVYWDRDM
chain 5: SIINFEKL

The variants in this assay derive from B1. Nature of the assay: % of reporter cells activated (NFAT-GFP), raw. Note: test concentration or dose not given here.
Turning to chain 5 L8D, the ratio to parent was 0.909. As to chain 5 L8A, the ratio to parent turned out to be 0.692. As to chain 5 L8M, the ratio to parent amounted to 0.785. Under chain 5 L8T stands 1.02; under chain 5 L8H, 1.25. Under chain 5 L8E stands 0.833; under chain 5 L8S, 0.828. Under chain 5 I3N stands 1.38; under chain 5 I3P, 1.29; under chain 5 I3F, 0.433.

chain 5 I3M: the ratio to parent came to 1.24. Under chain 5 I3H stands 1.55; under chain 5 I3E, 1.21; under chain 5 I3T, 1.22. For chain 5 I3C, the ratio to parent came out at 1.2. Under chain 5 I2T stands 1.47; under chain 5 K7D, 0.155; under chain 5 K7Y, 0.654.

For the variant chain 5 K7Q, the ratio to parent was determined as 0.132.

Turning to chain 5 K7E, the ratio to parent came out at 0.0934. With chain 5 K7I, the ratio to parent stood at 0.142. As for chain 5 N4C, the ratio to parent was 0.108. Under chain 5 N4G stands 0.451; under chain 5 N4L, 0.631; under chain 5 N4P, 0.71. Turning to chain 5 N4Q, the ratio to parent came to 0.0702. Under chain 5 E6C stands 0.0131; under chain 5 F5Q, 1.41. Under chain 5 F5L stands 1.17; under chain 5 S1E, 1.27; under chain 5 S1Q, 1.61.

With chain 5 S1L, the ratio to parent was 0.454. Under chain 5 S1M stands 0.348. Under chain 5 S1W stands 0.515.
